Measured values reported in paper doi:10.1101/197558 (bioRxiv, 2017).
Read-outs that look alike come from different tables or passages of the source.

T1: full-length C. elegans MEI-1 (C. elegans, UniProt P34808 1-472)
T1 sequence (looked up): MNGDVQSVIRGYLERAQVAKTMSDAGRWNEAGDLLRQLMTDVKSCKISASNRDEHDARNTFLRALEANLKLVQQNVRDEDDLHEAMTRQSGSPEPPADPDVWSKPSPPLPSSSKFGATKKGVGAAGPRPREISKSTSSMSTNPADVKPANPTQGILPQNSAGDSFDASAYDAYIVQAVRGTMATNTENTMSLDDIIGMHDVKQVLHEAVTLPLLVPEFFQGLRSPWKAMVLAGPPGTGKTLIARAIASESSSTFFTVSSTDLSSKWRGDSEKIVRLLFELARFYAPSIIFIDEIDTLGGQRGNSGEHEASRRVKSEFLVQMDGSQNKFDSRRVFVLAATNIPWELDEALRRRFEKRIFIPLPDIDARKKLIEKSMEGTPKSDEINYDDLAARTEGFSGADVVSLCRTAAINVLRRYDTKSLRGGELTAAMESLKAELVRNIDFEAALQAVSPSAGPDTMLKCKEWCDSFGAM

B1: full length human KATNAL1 (E308Q) (enzyme, UniProt Q9BW62 1-490, looked up)
chain: MNLAEICDNAKKGREYALLGNYDSSMVYYQGVMQQIQRHCQSVRDPAIKGKWQQVRQELLEEYEQVKSIVSTLESFKIDKPPDFPVSCQDEPFRDPAVWPPPVPAEHRAPPQIRRPNREVRPLRKEMAGVGARGPVGRAHPISKSEKPSTSRDKDYRARGRDDKGRKNMQDGASDGEMPKFDGAGYDKDLVEALERDIVSRNPSIHWDDIADLEEAKKLLREAVVLPMWMPDFFKGIRRPWKGVLMVGPPGTGKTMLAKAVATECGTTFFNVSSSTLTSKYRGESEKLVRLLFEMARFYAPTTIFIDQIDSICSRRGTSDEHEASRRVKSELLIQMDGVGGALENDDPSKMVMVLAATNFPWDIDEALRRRLEKRIYIPLPTAKGRAELLKINLREVELDPDIQLEDIAEKIEGYSGADITNVCRDASLMAMRRRINGLSPEEIRALSKEELQMPVTKGDFELALKKIAKSVSAADLEKYEKWMVEFGSA

What was measured:
Assay in all cases: SEC-MALS
SEC-MALS [1] = biological target: the molecule itself
[2] = biological target: B1
[3] = biological target: full length human KATNAL1 (human, UniProt Q9BW62 1-490)
SEC-MALS [4] = biological target: the molecule itself; remark: listed apart in the source
[5] = biological target: T1, full-length C. elegans MEI-1

Row | Binder | stoichiometry N (SEC-MALS [1]) | stoichiometry N (SEC-MALS [4]) | also measured
1 | wild-type KATNAL1/B1-con80 complex (full length human KATNAL1 with the con80 domain, residues 411-655, of human KATNB1) (complex) chain 1: MNLAEICDNAKKGREYALLGNYDSSMVYYQGVMQQIQRHCQSVRDPAIKGKWQQVRQELLEEYEQVKSIVSTLESFKIDKPPDFPVSCQDEPFRDPAVWPPPVPAEHRAPPQIRRPNREVRPLRKEMAGVGARGPVGRAHPISKSEKPSTSRDKDYRARGRDDKGRKNMQDGASDGEMPKFDGAGYDKDLVEALERDIVSRNPSIHWDDIADLEEAKKLLREAVVLPMWMPDFFKGIRRPWKGVLMVGPPGTGKTMLAKAVATECGTTFFNVSSSTLTSKYRGESEKLVRLLFEMARFYAPTTIFIDEIDSICSRRGTSDEHEASRRVKSELLIQMDGVGGALENDDPSKMVMVLAATNFPWDIDEALRRRLEKRIYIPLPTAKGRAELLKINLREVELDPDIQLEDIAEKIEGYSGADITNVCRDASLMAMRRRINGLSPEEIRALSKEELQMPVTKGDFELALKKIAKSVSAADLEKYEKWMVEFGSA chain 2: AATAKEAAKPSPAMDVQFPVPNLEVLPRPPVVASTPAPKAEPAIIPATRNEPIGLKASDFLPAVKIPQQAELVDEDAMSQIRKGHDTMCVVLTSRHKNLDTVRAVWTMGDIKTSVDSAVAINDLSVVVDLLNIVNQKASLWKLDLCTTVLPQIEKLLQSKYESYVQTGCTSLKLILQRFLPLITDMLAAPPSVGVDISREERLHKCRLCYKQLKSISGLVKSKSGLSGRHGSTFRELHLLMASLD | 2 |  | 
2 | con80 domain (residues 411-655) of human KATNB1 (domain or fragment, UniProt Q9BVA0 411-655, looked up) AATAKEAAKPSPAMDVQFPVPNLEVLPRPPVVASTPAPKAEPAIIPATRNEPIGLKASDFLPAVKIPQQAELVDEDAMSQIRKGHDTMCVVLTSRHKNLDTVRAVWTMGDIKTSVDSAVAINDLSVVVDLLNIVNQKASLWKLDLCTTVLPQIEKLLQSKYESYVQTGCTSLKLILQRFLPLITDMLAAPPSVGVDISREERLHKCRLCYKQLKSISGLVKSKSGLSGRHGSTFRELHLLMASLD |  |  | binding result [2]: binds; binding result [3]: binds
3 | KATNAL1 (E308Q)/B1-con80 complex (complex, human) chain 1: MNLAEICDNAKKGREYALLGNYDSSMVYYQGVMQQIQRHCQSVRDPAIKGKWQQVRQELLEEYEQVKSIVSTLESFKIDKPPDFPVSCQDEPFRDPAVWPPPVPAEHRAPPQIRRPNREVRPLRKEMAGVGARGPVGRAHPISKSEKPSTSRDKDYRARGRDDKGRKNMQDGASDGEMPKFDGAGYDKDLVEALERDIVSRNPSIHWDDIADLEEAKKLLREAVVLPMWMPDFFKGIRRPWKGVLMVGPPGTGKTMLAKAVATECGTTFFNVSSSTLTSKYRGESEKLVRLLFEMARFYAPTTIFIDQIDSICSRRGTSDEHEASRRVKSELLIQMDGVGGALENDDPSKMVMVLAATNFPWDIDEALRRRLEKRIYIPLPTAKGRAELLKINLREVELDPDIQLEDIAEKIEGYSGADITNVCRDASLMAMRRRINGLSPEEIRALSKEELQMPVTKGDFELALKKIAKSVSAADLEKYEKWMVEFGSA chain 2: AATAKEAAKPSPAMDVQFPVPNLEVLPRPPVVASTPAPKAEPAIIPATRNEPIGLKASDFLPAVKIPQQAELVDEDAMSQIRKGHDTMCVVLTSRHKNLDTVRAVWTMGDIKTSVDSAVAINDLSVVVDLLNIVNQKASLWKLDLCTTVLPQIEKLLQSKYESYVQTGCTSLKLILQRFLPLITDMLAAPPSVGVDISREERLHKCRLCYKQLKSISGLVKSKSGLSGRHGSTFRELHLLMASLD | 6 | 2 | 
4 | B1 | 6 |  | 
5 | full-length C. elegans MEI-2 (natural protein, UniProt O44740 1-280, looked up) MSGLDDRKKLTHAKNRKPLNDIPKSAENRPNTRSTSSRRGAEKDVPITFIGSSRTVKADLPEFTNTRSRRPLHSESKKELSRNPVSRGEEHSSSLPKSSPESSVSVMSSNASLWSACTEEVNKIGVCAKRESRNLRVYKMKSFTSNMEQILSNDNQLAPTVIRILNSRNSWCLNSCHACLTFIMENITSDNYGKRSACLKALASITNSLLDTIIGFASTKTRRIGVDVVAEERAAKATECIHNFRKIVKNRDKIYKQIDQETIYKLDAILERLKKVSSHK |  |  | binding result [5]: binds
6 | C. elegans MEI-1/MEI-2 complex (full-length MEI-1 with full-length MEI-2) (complex) chain 1: MNGDVQSVIRGYLERAQVAKTMSDAGRWNEAGDLLRQLMTDVKSCKISASNRDEHDARNTFLRALEANLKLVQQNVRDEDDLHEAMTRQSGSPEPPADPDVWSKPSPPLPSSSKFGATKKGVGAAGPRPREISKSTSSMSTNPADVKPANPTQGILPQNSAGDSFDASAYDAYIVQAVRGTMATNTENTMSLDDIIGMHDVKQVLHEAVTLPLLVPEFFQGLRSPWKAMVLAGPPGTGKTLIARAIASESSSTFFTVSSTDLSSKWRGDSEKIVRLLFELARFYAPSIIFIDEIDTLGGQRGNSGEHEASRRVKSEFLVQMDGSQNKFDSRRVFVLAATNIPWELDEALRRRFEKRIFIPLPDIDARKKLIEKSMEGTPKSDEINYDDLAARTEGFSGADVVSLCRTAAINVLRRYDTKSLRGGELTAAMESLKAELVRNIDFEAALQAVSPSAGPDTMLKCKEWCDSFGAM chain 2: MSGLDDRKKLTHAKNRKPLNDIPKSAENRPNTRSTSSRRGAEKDVPITFIGSSRTVKADLPEFTNTRSRRPLHSESKKELSRNPVSRGEEHSSSLPKSSPESSVSVMSSNASLWSACTEEVNKIGVCAKRESRNLRVYKMKSFTSNMEQILSNDNQLAPTVIRILNSRNSWCLNSCHACLTFIMENITSDNYGKRSACLKALASITNSLLDTIIGFASTKTRRIGVDVVAEERAAKATECIHNFRKIVKNRDKIYKQIDQETIYKLDAILERLKKVSSHK |  | 2 | 
